The values below come from publication PMC6743330.

The target of the test is PtmU3 (Streptomyces platensis CB00739). Kind of test: SEC. On the technique in general: SEC sorts molecules by how far they enter the pores of the column.

Consider PtmU3 (enzyme), for which the stoichiometry N came to 2.

The stoichiometry N is the number of molecules, sites or subunits per partner or assembly.
